Test results from US20210139548A1 (published 2021).
*1 amine or outer side, *2 acyl side, *3 side chain or, on linkers, in order; H or OH if unused. Side-chain parts run from the residue outwards. The star is where a group is joined. C18 diacid = O=C(O)CCCCCCCCCCCCCCCCC(=O)*; γGlu = O=C(O)[C@H](CCC(=O)[*:2])N[*:1]; Isovaleryl = CC(C)CC(=O)*; AEEA = NCCOCCOCC(=O)O

T1: human neuropeptide Y2 receptor (human, UniProt P49146 1-381)
T1 construct: whole, on cells; also called hNPY2 receptor; hNPY2-R
T1 sequence (looked up): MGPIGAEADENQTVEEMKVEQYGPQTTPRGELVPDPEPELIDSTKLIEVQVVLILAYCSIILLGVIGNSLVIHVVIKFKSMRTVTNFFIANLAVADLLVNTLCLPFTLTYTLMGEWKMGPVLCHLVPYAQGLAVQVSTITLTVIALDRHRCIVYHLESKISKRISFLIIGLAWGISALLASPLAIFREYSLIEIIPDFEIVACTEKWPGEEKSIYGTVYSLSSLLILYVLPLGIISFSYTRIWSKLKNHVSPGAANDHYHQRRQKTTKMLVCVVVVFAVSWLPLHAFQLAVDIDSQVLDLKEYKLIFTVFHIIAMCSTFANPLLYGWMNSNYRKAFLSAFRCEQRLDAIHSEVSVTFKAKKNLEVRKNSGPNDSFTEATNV


Molecular target: T1, human neuropeptide Y2 receptor
Test: radioligand competition (125I-PYY(1-36)), hNPY2R membranes
Outline: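 Commercial human Y2 receptor membranes (0.5 μg protein/well) were incubated with peptide for 2 h at room temperature in 50 mM HEPES, 5 mM MgCl₂, 1 mM CaCl₂, pH 7.4, with 0.2% ovalbumin. Bound radioligand was separated on PEI-soaked GF/C filters and counted by scintillation, and IC₅₀ came from nonlinear sigmoidal regression.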

| Ki [nM] | Binder |
| --- | --- |
| 4.52 | Isovaleryl-APEK([AEEA-AEEA-γGlu-C18 diacid])PEEEASEEELQRYYVSLRHYYNWLTRQRY-NH2 (SMILES CC(C)CC(=O)N[C@@H](C)C(=O)N1CCC[C@H]1C(=O)N[C@@H](CCC(=O)O)C(=O)N[C@@H](CCCCNC(=O)COCCOCCNC(=O)COCCOCCNC(=O)CC[C@H](NC(=O)CCCCCCCCCCCCCCCCC(=O)O)C(=O)O)C(=O)N1CCC[C@H]1C(=O)N[C@@H](CCC(=O)O)C(=O)N[C@@H](CCC(=O)O)C(=O)N[C@@H](CCC(=O)O)C(=O)N[C@@H](C)C(=O)N[C@@H](CO)C(=O)N[C@@H](CCC(=O)O)C(=O)N[C@@H](CCC(=O)O)C(=O)N[C@@H](CCC(=O)O)C(=O)N[C@@H](CC(C)C)C(=O)N[C@@H](CCC(N)=O)C(=O)N[C@@H](CCCNC(=N)N)C(=O)N[C@@H](Cc1ccc(O)cc1)C(=O)N[C@@H](Cc1ccc(O)cc1)C(=O)N[C@H](C(=O)N[C@@H](CO)C(=O)N[C@@H](CC(C)C)C(=O)N[C@@H](CCCNC(=N)N)C(=O)N[C@@H](Cc1c[nH]cn1)C(=O)N[C@@H](Cc1ccc(O)cc1)C(=O)N[C@@H](Cc1ccc(O)cc1)C(=O)N[C@@H](CC(N)=O)C(=O)N[C@@H](Cc1c[nH]c2ccccc12)C(=O)N[C@@H](CC(C)C)C(=O)N[C@H](C(=O)N[C@@H](CCCNC(=N)N)C(=O)N[C@@H](CCC(N)=O)C(=O)N[C@@H](CCCNC(=N)N)C(=O)N[C@@H](Cc1ccc(O)cc1)C(N)=O)[C@@H](C)O)C(C)C) [Compound 79] |
| 1.56 | Isovaleryl-APEK([AEEA-AEEA-γGlu-C18 diacid])PEEDASPEELQRYAVSLRHYYNWLTRQRY-NH2 (SMILES CC(C)CC(=O)N[C@@H](C)C(=O)N1CCC[C@H]1C(=O)N[C@@H](CCC(=O)O)C(=O)N[C@@H](CCCCNC(=O)COCCOCCNC(=O)COCCOCCNC(=O)CC[C@H](NC(=O)CCCCCCCCCCCCCCCCC(=O)O)C(=O)O)C(=O)N1CCC[C@H]1C(=O)N[C@@H](CCC(=O)O)C(=O)N[C@@H](CCC(=O)O)C(=O)N[C@@H](CC(=O)O)C(=O)N[C@@H](C)C(=O)N[C@@H](CO)C(=O)N1CCC[C@H]1C(=O)N[C@@H](CCC(=O)O)C(=O)N[C@@H](CCC(=O)O)C(=O)N[C@@H](CC(C)C)C(=O)N[C@@H](CCC(N)=O)C(=O)N[C@@H](CCCNC(=N)N)C(=O)N[C@@H](Cc1ccc(O)cc1)C(=O)N[C@@H](C)C(=O)N[C@H](C(=O)N[C@@H](CO)C(=O)N[C@@H](CC(C)C)C(=O)N[C@@H](CCCNC(=N)N)C(=O)N[C@@H](Cc1c[nH]cn1)C(=O)N[C@@H](Cc1ccc(O)cc1)C(=O)N[C@@H](Cc1ccc(O)cc1)C(=O)N[C@@H](CC(N)=O)C(=O)N[C@@H](Cc1c[nH]c2ccccc12)C(=O)N[C@@H](CC(C)C)C(=O)N[C@H](C(=O)N[C@@H](CCCNC(=N)N)C(=O)N[C@@H](CCC(N)=O)C(=O)N[C@@H](CCCNC(=N)N)C(=O)N[C@@H](Cc1ccc(O)cc1)C(N)=O)[C@@H](C)O)C(C)C) [Compound 85] |
| 1.19 | Isovaleryl-APEK([AEEA-AEEA-γGlu-C18 diacid])PEADASPEELQRYEVSLRHYYNWLTRQRY-NH2 (SMILES CC(C)CC(=O)N[C@@H](C)C(=O)N1CCC[C@H]1C(=O)N[C@@H](CCC(=O)O)C(=O)N[C@@H](CCCCNC(=O)COCCOCCNC(=O)COCCOCCNC(=O)CC[C@H](NC(=O)CCCCCCCCCCCCCCCCC(=O)O)C(=O)O)C(=O)N1CCC[C@H]1C(=O)N[C@@H](CCC(=O)O)C(=O)N[C@@H](C)C(=O)N[C@@H](CC(=O)O)C(=O)N[C@@H](C)C(=O)N[C@@H](CO)C(=O)N1CCC[C@H]1C(=O)N[C@@H](CCC(=O)O)C(=O)N[C@@H](CCC(=O)O)C(=O)N[C@@H](CC(C)C)C(=O)N[C@@H](CCC(N)=O)C(=O)N[C@@H](CCCNC(=N)N)C(=O)N[C@@H](Cc1ccc(O)cc1)C(=O)N[C@@H](CCC(=O)O)C(=O)N[C@H](C(=O)N[C@@H](CO)C(=O)N[C@@H](CC(C)C)C(=O)N[C@@H](CCCNC(=N)N)C(=O)N[C@@H](Cc1c[nH]cn1)C(=O)N[C@@H](Cc1ccc(O)cc1)C(=O)N[C@@H](Cc1ccc(O)cc1)C(=O)N[C@@H](CC(N)=O)C(=O)N[C@@H](Cc1c[nH]c2ccccc12)C(=O)N[C@@H](CC(C)C)C(=O)N[C@H](C(=O)N[C@@H](CCCNC(=N)N)C(=O)N[C@@H](CCC(N)=O)C(=O)N[C@@H](CCCNC(=N)N)C(=O)N[C@@H](Cc1ccc(O)cc1)C(N)=O)[C@@H](C)O)C(C)C) [Compound 86] |
| 1.97 | Isovaleryl-APEK([AEEA-AEEA-γGlu-C18 diacid])PEEDSSPAELQRYYVSLRHYYNWLTRQRY-NH2 (SMILES CC(C)CC(=O)N[C@@H](C)C(=O)N1CCC[C@H]1C(=O)N[C@@H](CCC(=O)O)C(=O)N[C@@H](CCCCNC(=O)COCCOCCNC(=O)COCCOCCNC(=O)CC[C@H](NC(=O)CCCCCCCCCCCCCCCCC(=O)O)C(=O)O)C(=O)N1CCC[C@H]1C(=O)N[C@@H](CCC(=O)O)C(=O)N[C@@H](CCC(=O)O)C(=O)N[C@@H](CC(=O)O)C(=O)N[C@@H](CO)C(=O)N[C@@H](CO)C(=O)N1CCC[C@H]1C(=O)N[C@@H](C)C(=O)N[C@@H](CCC(=O)O)C(=O)N[C@@H](CC(C)C)C(=O)N[C@@H](CCC(N)=O)C(=O)N[C@@H](CCCNC(=N)N)C(=O)N[C@@H](Cc1ccc(O)cc1)C(=O)N[C@@H](Cc1ccc(O)cc1)C(=O)N[C@H](C(=O)N[C@@H](CO)C(=O)N[C@@H](CC(C)C)C(=O)N[C@@H](CCCNC(=N)N)C(=O)N[C@@H](Cc1c[nH]cn1)C(=O)N[C@@H](Cc1ccc(O)cc1)C(=O)N[C@@H](Cc1ccc(O)cc1)C(=O)N[C@@H](CC(N)=O)C(=O)N[C@@H](Cc1c[nH]c2ccccc12)C(=O)N[C@@H](CC(C)C)C(=O)N[C@H](C(=O)N[C@@H](CCCNC(=N)N)C(=O)N[C@@H](CCC(N)=O)C(=O)N[C@@H](CCCNC(=N)N)C(=O)N[C@@H](Cc1ccc(O)cc1)C(N)=O)[C@@H](C)O)C(C)C) [Compound 87] |
| 6.96 | Isovaleryl-APEK([AEEA-AEEA-γGlu-C18 diacid])PEEEASPEETQRYYVSLRHYYNWLTRQRY-NH2 (SMILES CC(C)CC(=O)N[C@@H](C)C(=O)N1CCC[C@H]1C(=O)N[C@@H](CCC(=O)O)C(=O)N[C@@H](CCCCNC(=O)COCCOCCNC(=O)COCCOCCNC(=O)CC[C@H](NC(=O)CCCCCCCCCCCCCCCCC(=O)O)C(=O)O)C(=O)N1CCC[C@H]1C(=O)N[C@@H](CCC(=O)O)C(=O)N[C@@H](CCC(=O)O)C(=O)N[C@@H](CCC(=O)O)C(=O)N[C@@H](C)C(=O)N[C@@H](CO)C(=O)N1CCC[C@H]1C(=O)N[C@@H](CCC(=O)O)C(=O)N[C@@H](CCC(=O)O)C(=O)N[C@H](C(=O)N[C@@H](CCC(N)=O)C(=O)N[C@@H](CCCNC(=N)N)C(=O)N[C@@H](Cc1ccc(O)cc1)C(=O)N[C@@H](Cc1ccc(O)cc1)C(=O)N[C@H](C(=O)N[C@@H](CO)C(=O)N[C@@H](CC(C)C)C(=O)N[C@@H](CCCNC(=N)N)C(=O)N[C@@H](Cc1c[nH]cn1)C(=O)N[C@@H](Cc1ccc(O)cc1)C(=O)N[C@@H](Cc1ccc(O)cc1)C(=O)N[C@@H](CC(N)=O)C(=O)N[C@@H](Cc1c[nH]c2ccccc12)C(=O)N[C@@H](CC(C)C)C(=O)N[C@H](C(=O)N[C@@H](CCCNC(=N)N)C(=O)N[C@@H](CCC(N)=O)C(=O)N[C@@H](CCCNC(=N)N)C(=O)N[C@@H](Cc1ccc(O)cc1)C(N)=O)[C@@H](C)O)C(C)C)[C@@H](C)O) [Compound 80] |
